Laboratory results as given in IntAct's records for PubMed 20462497.

B1: Interleukin-10 receptor subunit beta (Homo sapiens), Q08334 (parent)
chain: MAWSLGSWLGGCLLVSALGMVPPPENVRMNSVNFKNILQWESPAFAKGNLTFTAQYLSYRIFQDKCMNTTLTECDFSSLSKYGDHTLRVRAEFADEHSDWVNITFCPVDDTIIGPPGMQVEVLADSLHMRFLAPKIENEYETWTMKNVYNSWTYNVQYWKNGTDEKFQITPQYDFEVLRNLEPWTTYCVQVRGFLPDRNKAGEWSEPVCEQTTHDETVPSWMVAVILMASVFMVCLALLGCFALLWCVYKKTKYAFSPRNSLPQHLKEFLGHPHHNTLLFFSFPLSDENDVFDKLSVIAEDSESGKQNPGDSCSLGTPPGQGPQS
B2: Interleukin-10 receptor subunit beta (Homo sapiens), Q08334 (parent)
chain: B1 chain
partner: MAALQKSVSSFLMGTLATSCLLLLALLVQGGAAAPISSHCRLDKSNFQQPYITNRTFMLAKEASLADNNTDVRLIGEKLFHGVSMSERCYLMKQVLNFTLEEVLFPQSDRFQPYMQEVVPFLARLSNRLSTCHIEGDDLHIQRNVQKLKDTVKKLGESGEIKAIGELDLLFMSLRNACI

Variants of: B1
Conditions: with il10_human IL10, P22301
Chain of il10_human IL10, P22301 (P22301 whole entry): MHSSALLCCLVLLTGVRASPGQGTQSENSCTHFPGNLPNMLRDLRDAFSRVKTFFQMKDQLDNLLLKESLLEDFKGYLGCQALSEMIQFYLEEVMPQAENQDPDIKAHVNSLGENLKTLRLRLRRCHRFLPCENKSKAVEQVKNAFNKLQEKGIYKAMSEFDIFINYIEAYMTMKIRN

| Variant | effect of a mutation on the interaction |
| --- | --- |
| Y82A | decreasing interaction |

Variants of: B2
Conditions: with il22_human IL22, Q9GZX6

| Variant | effect of a mutation on the interaction |
| --- | --- |
| Y82A | decreasing interaction |
